Data as given in publication PMC11708228, “New mutations in the core Schizosaccharomyces pombe spindle pole body scaffold Ppc89 reveal separable functions in regulating cell division” (G3: Genes | Genomes | Genetics, 2024).

Target: T1, GST-Ppc89(545-687) (S. pombe, UniProt Q10218 545-687)
T1 sequence (looked up): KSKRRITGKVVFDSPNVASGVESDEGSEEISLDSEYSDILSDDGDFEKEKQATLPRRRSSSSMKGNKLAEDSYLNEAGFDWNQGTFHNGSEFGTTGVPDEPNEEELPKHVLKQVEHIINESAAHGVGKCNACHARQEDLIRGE
Assay: pull-down; 10 µg GST-Ppc89 bound to GST beads, blocked with 5% BSA, 10 µg MBP-Sid4 added, 30 min at 4°C in GST-bind buffer (4.3 mM sodium phosphate pH 7.3, 137 mM NaCl, 2.7 mM KCl, 1 mM DTT, 0.1% NP-40); washes up to 300 mM NaCl; SDS-PAGE, Coomassie blue
Settings: both partners purified

binding result: binds
B1: MBP-Sid4(546-660) (domain or fragment, S. pombe, UniProt O60187 546-660, looked up)
chain: SQPLTSLNMPDSRFNLAKEKQLYYRLGLQHIDQQCSVETANMLKTVLVQLNIPFAIFPSTIGQVRRQLQQGRRLYQWARNIHYLIYEENMRDGLVSKQCLADMLKKIRELKKRSL
notes: Sid4, S. pombe, 660 aa, residues 546-660 (predicted α-helices 7-11); source: Rosetta2(DE3)pLysS bacteria, purified (amylose resin)
